For 1 protein, Km results are on record in paper PMC5460274, “Human dimethylarginine dimethylaminohydrolase 1 inhibition by proton pump inhibitors and the cardiovascular risk marker asymmetric dimethylarginine: in vitro and in vivo significance” (Scientific Reports, 2017).

Substrate in the data set: CN(C)C(=N)NCCC[C@H](N)C(=O)O
Put plainly: cells, lysate or membranes.

B1: dimethylarginine dimethylaminohydrolase 1 (DDAH1) (Homo sapiens) (protein)
chain: AGLGHPAAFGRATHAVVRALPESLGQHALRSAKGEEVDVARAERQHQLYVGVLGSKLGLQVVELPADESLPDCVFVEDVAVVCEETALITRPGAPSRRKEVDMMKEALEKLQLNIVEMKDENATLDGGDVLFTGREFFVGLSKRTNQRGAEILADTFKDYAVSTVPVADGLHLKSFCSMAGPNLIAIGSSESAQKALKIMQQMSDHRYDKLTVPDDIAANCIYLNIPNKGHVLLHRTPEEYPESAKVYEKLKDHMLIPVSMSELEKVDGLLTCCSVLINKKVDS
Broadly, the Km is the substrate concentration at which the rate is half of its maximum. Turning to B1, the Km is given as 45 ± 2 µmol/L.
